Measured values published in US12269859B2, “Synthetic immune receptors and methods of use thereof” (Angeles Therapeutics, Inc., priority 2016, dated 2025).

Test system: target antigen-expressing cell line
Assay: Jurkat NFAT-GFP assay, coculture with target cell lines expressing the respective target antigen (summary Table 10A)
Assay type: cell-based, human
Design: key: The signs +/−, +, 2+ etc. after the name of the cell lines indicate the relative degree of positivity on the Jurkat-NFAT-GFP assay as measured by the % GFP positive cells; +: relative degree of positivity on the Jurkat-NFAT-GFP assay as measured by the % GFP positive cells; 2+: relative degree of positivity on the Jurkat-NFAT-GFP assay as measured by the % GFP positive cells
Conditions: relative % GFP positive cells; for NFAT-GFP ASSAY Positive Cell lines: RAJI: SIR-expressing Jurkat-NFAT-GFP cells cocultured with RAJI
Description: (B) Induction of NFAT promoter driven GFP expression. The control vector- and SIR-expressing Jurkat-NFAT-GFP cocultured for 4-24 hours with the target antigen-expressing cell line (described above) and their ability to bind to the target antigen is assayed by measuring induction of GFP expression using Flow Cytometry. Cellular supernatant is collected and assayed for the induction of cytokines (e.g., IL2).
Jurkat NFAT-GFP Assay For Synthetic Immune Receptors. The Jurkat-NFAT-GFP cells are engineered in such a way that the IL-2 promoter, which carries NFAT binding sites, is cloned upstream of the GFP gene. These cells have been used to study signaling via TCR and CAR. The different SIRs were stably expressed in Jurkat NFAT-GFP cells by lentiviral mediated gene transfer, followed by selection with puromycin. The SIR-expressing Jurkat-NFAT-GFP cells were cocultured with the target cells at E:T ratio of approximately 1:2 for approximately 4 hours to 18 hours. When the interaction between SIRs and their target antigen results in activation of the NFAT pathway, GFP expression is induced.
Induction of GFP expression by coculturing of Jurkat-NFAT-GFP cells expressing different SIR constructs and the different target cells was studied essentially as described previously (Wu, Roybal, Puchner, Onuffer, & Lim, 2015). GFP expression was monitored by FACS analysis. A few representative examples of this assay are shown in the FIG. 13A-B. In panel A, control Jurkat-NFAT-GFP cells or those expressing SIRs targeting CD19 (clone ID 051716-I08), MPL (Clone ID: 040716-A07) and BCMA (Clone ID: 011116-A07) were incubated with RAJI (top), HEL (middle) or U266 (bottom) cells, respectively. […] In panel B, Jurkat cells expressing SIR targeting CDH6 (Clone ID: 051716-J05), CD276 (Clone ID: 050516-Q06) and Her2/neu (Clone ID: 050516-I03) were incubated with SKOV3 (top) and […] (middle and bottom) cells, respectively. […] The Jurkat-NFAT-GFP cells were engineered to express different SIRs targeting other antigens and the experiment repeated upon coculture with the target cells expressing their respective target antigen. The Jurkat-NFAT-GFP (parental) cells were used as control. The names of different SIRs, their SEQ ID NOs, component antigen binding domains and TCR chains can be determined by reference to Tables 7A-7H. A SIR is considered positive in the assay in case the SIR expressing Jurkat-NFAT-GFP cells show greater % GFP positive cells when cultured with the target cell line as compared to parental Jurkat-NFAT-GFP cells. […] The signs +/−, +, 2+ etc. after the name of the cell lines indicate the relative degree of positivity on the Jurkat-NFAT-GFP assay as measured by the % GFP positive cells after culture of the SIR expressing Jurkat-NFAT-GFP cells with that cell line. […] In addition, great diversity of response against the same target cell line is observed with Jurkat cells expressing SIRs containing different antigen binding domains targeting the same antigen (e.g., SIRs having antigen binding domains derived form different CD19 antibodies) even when the SIRs share the same TCR chains and linkers. Finally, Jurkat cells expressing SIRs targeting different antigens (e.g. CD19 vs CD20) show a diversitiy of response when exposed to the same target cell line. Thus, a diverse immune response can be generated against a single target cell by combining SIRs with different TCR chains, linkers, antigen binding domains and target specificity. Table 10A also summarizes the results of GLuc based T cell cytotoxicity assay observed with different SIRs when exposed to their target cell lines. […]

| Molecule | NFAT-GFP ASSAY Positive Cell lines: RAJI | NFAT-GFP ASSAY Positive Cell lines: NALM6 (SIR-expressing Jurkat-NFAT-GFP cells cocultured with NALM6) | NFAT-GFP ASSAY Positive Cell lines: HepG2 (SIR-expressing Jurkat-NFAT-GFP cells cocultured with HepG2) |
| --- | --- | --- | --- |
| 091216-K03 (protein, Synthetic Immune Receptor (SIR)) MALPVTALLLPLALLLHAARPLEGKPIPNPLLGLDSTGSGEDLKNVFPPEVAVFEPSKAEIAHTQKATLVCLATGFYPDHVELSWWVNGKEVHSGVCTDPQPLKEQPALNDSRYCLSSRLRVSATFWQNPRNHFRCQVQFYGLSENDEWTQDRAKPVTQIVSAEAWGRADCGITSASYHQGVLSATILYEILLGKATLYAVLVSALVLMAMVKRKDSRGRAKRSGSGATNFSLLKQAGDVEENPGPTSTMALPVTALLLPLALLLHAARPEIVMTQSPATLSLSPGERATLSCRASQDISKYLNWYQQKPGQAPRLLIYHTSRLHSGIPARFSGSGSGTDYTLTISSLQPEDFAVYFCQQGNTLPYTFGQGTKLEIKGGGGSGGGGSGGGGSQVQLQESGPGLVKPSETLSLTCTVSGVSLPDYGVSWIRQPPGKGLEWIGVIWGSETTYYNSSLKSRVTISKDNSKNQVSLKLSSVTAADTAVYYCAKHYYYGGSYAMDYWGQGTLVTVSSTREQKLISEEDGSGIQNPDPAVYQLRDSKSSDKSVCLFTDFDSQTNVSQSKDSDVYITDKCVLDMRSMDFKSNSAVAWSNKSDFACANAFNNSIIPEDTFFPSSDVPCDVKLVEKSFETDTNLNFQNLSVIGFRILLLKVAGFNLLMTLRLWSSRAKRSGSGVKQTLNFDLLKLAGDVESNPGPSRGHMTEYKPTVRLATRDDVPRAVRTLAAAFADYPATRHTVDPDRHIERVTELQELFLTRVGLDIGKVWVADDGAAVAVWTTPESVEAGAVFAEIGPRMAELSGSRLAAQQQMEGLLAPHRPKEPAWFLATVGVSPDHQGKGLGSAVVLPGVEAAERAGVPAFLETSAPRNLPFYERLGFTVTADVEVPEGPRTWCMTRKPGA | RAJI (+/−) |  |  |
| 072516-B05 (protein, Synthetic Immune Receptor (SIR)) MALPVTALLLPLALLLHAARPEIVMTQSPATLSLSPGERATLSCRASQDISKYLNWYQQKPGQAPRLLIYHTSRLHSGIPARFSGSGSGTDYTLTISSLQPEDFAVYFCQQGNTLPYTFGQGTKLEIKLEGKPIPNPLLGLDSTGSGEDLKNVFPPEVAVFEPSKAEIAHTQKATLVCLATGFYPDHVELSWWVNGKEVHSGVCTDPQPLKEQPALNDSRYCLSSRLRVSATFWQNPRNHFRCQVQFYGLSENDEWTQDRAKPVTQIVSAEAWGRADCGITSASYHQGVLSATILYEILLGKATLYAVLVSALVLMAMVKRKDSRGRAKRSGSGATNFSLLKQAGDVEENPGPTSMDWIWRILFLVGAATGAHSFEQVQLQESGPGLVKPSETLSLTCTVSGVSLPDYGVSWIRQPPGKGLEWIGVIWGSETTYYNSSLKSRVTISKDNSKNQVSLKLSSVTAADTAVYYCAKHYYYGGSYAMDYWGQGTLVTVSSTREQKLISEEDGSGIQNPDPAVYQLRDSKSSDKSVCLFTDFDSQTNVSQSKDSDVYITDKCVLDMRSMDFKSNSAVAWSNKSDFACANAFNNSIIPEDTFFPSSDVPCDVKLVEKSFETDTNLNFQNLSVIGFRILLLKVAGFNLLMTLRLWSSRAKRSGSGVKQTLNFDLLKLAGDVESNPGPSRGHMTEYKPTVRLATRDDVPRAVRTLAAAFADYPATRHTVDPDRHIERVTELQELFLTRVGLDIGKVWVADDGAAVAVWTTPESVEAGAVFAEIGPRMAELSGSRLAAQQQMEGLLAPHRPKEPAWFLATVGVSPDHQGKGLGSAVVLPGVEAAERAGVPAFLETSAPRNLPFYERLGFTVTADVEVPEGPRTWCMTRKPGA | RAJI(+/−) |  |  |
| 101216-H03 (protein) MALPVTALLLPLALLLHAARPEIVMTQSPATLSLSPGERATLSCRASQDISKYLNWYQQKPGQAPRLLIYHTSRLHSGIPARFSGSGSGTDYTLTISSLQPEDFAVYFCQQGNTLPYTFGQGTKLEIKLEGKPIPNPLLGLDSTGSGEDLKNVFPPEVAVFEPSKAEIAHTQKATLVCLATGFYPDHVELSWWVNGKEVHSGVCTDPQPLKEQPALNDSRYCLSSRLRVSATFWQNPRNHFRCQVQFYGLSENDEWTQDRAKPVTQIVSAEAWGRADCGITSASYHQGVLSATILYEILLGKATLYAVLVSALVLMAMVKRKDSRGRAKRSGSGATNFSLLKQAGDVEENPGPTSMDWIWRILFLVGAATGAHSFEDIQMTQTTSSLSASLGDRVTISCRASQDISKYLNWYQQKPDGTVKLLIYHTSRLHSGVPSRFSGSGSGTDYSLTISNLEQEDIATYFCQQGNTLPYTFGGGTKLEITTREQKLISEEDGSGIQNPDPAVYQLRDSKSSDKSVCLFTDFDSQTNVSQSKDSDVYITDKCVLDMRSMDFKSNSAVAWSNKSDFACANAFNNSIIPEDTFFPSSDVPCDVKLVEKSFETDTNLNFQNLSVIGFRILLLKVAGFNLLMTLRLWSSRAKRSGSGVKQTLNFDLLKLAGDVESNPGPSRGHMTEYKPTVRLATRDDVPRAVRTLAAAFADYPATRHTVDPDRHIERVTELQELFLTRVGLDIGKVWVADDGAAVAVWTTPESVEAGAVFAEIGPRMAELSGSRLAAQQQMEGLLAPHRPKEPAWFLATVGVSPDHQGKGLGSAVVLPGVEAAERAGVPAFLETSAPRNLPFYERLGFTVTADVEVPEGPRTWCMTRKPGA | RAJI(2+), NALM6(2+) | RAJI(2+), NALM6(2+) |  |
| 012617-N02 (protein) MALPVTALLLPLALLLHAARPLEGKPIPNPLLGLDSTGSGEDLKNVFPPEVAVFEPSKAEIAHTQKATLVCLATGFYPDHVELSWWVNGKEVHSGVCTDPQPLKEQPALNDSRYCLSSRLRVSATFWQNPRNHFRCQVQFYGLSENDEWTQDRAKPVTQIVSAEAWGRADCGITSASYHQGVLSATILYEILLGKATLYAVLVSALVLMAMVKRKDSRGRAKRSGSGATNFSLLKQAGDVEENPGPTSMALPVTALLLPLALLLHAARPQSVVTQPPSVSAAPGQKVTISCSGSSSNIGNNYVSWYQQLPGTAPKLLIYDNNKRPSGIPDRFSGSKSGTSATLGITGLQTGDEADYYCGTWDGSLYTMLFGGGTKLTVLGGGGSGGGGSGGGGSEVQLVESGGGLVKPGGSLRLSCAASGFTFSNAWMSWVRQAPGKGLEWVGFIRSKAYGGTTEYAASVKGRFTISRDDSKSIAYLQMNNLKTEDTAVYYCARDGLYSSSWYDSDYWGQGTLVTVSSTREQKLISEEDGSGIQNPDPAVYQLRDSKSSDKSVCLFTDFDSQTNVSQSKDSDVYITDKCVLDMRSMDFKSNSAVAWSNKSDFACANAFNNSIIPEDTFFPSSDVPCDVKLVEKSFETDTNLNFQNLSVIGFRILLLKVAGFNLLMTLRLWSSRAKRSGSGVKQTLNFDLLKLAGDVESNPGPSRGHMTEYKPTVRLATRDDVPRAVRTLAAAFADYPATRHTVDPDRHIERVTELQELFLTRVGLDIGKVWVADDGAAVAVWTTPESVEAGAVFAEIGPRMAELSGSRLAAQQQMEGLLAPHRPKEPAWFLATVGVSPDHQGKGLGSAVVLPGVEAAERAGVPAFLETSAPRNLPFYERLGFTVTADVEVPEGPRTWCMTRKPGA |  |  | HepG2 (+/−) |
